In doi:10.1101/2021.08.20.457142:

B1: MKK7 D-site peptide (second D-site) / JNK1 alpha1 (MAPK8 isoform 1) L198A, full length (parent complex)
chain 1: SQPQRPRPTLQLPLANEAFEQP
chain 2: MSRSKRDNNFYSVEIGDSTFTVLKRYQNLKPIGSGAQGIVCAAYDAILERNVAIKKLSRPFQNQTHAKRAYRELVLMKCVNHKNIIGLLNVFTPQKSLEEFQDVYIVMELMDANLCQVIQMELDHERMSYLLYQMLCGIKHLHSAGIIHRDLKPSNIVVKSDCTLKILDFGLARTAGTSFMMTPYVVTRYYRAPEVIAGMGYKENVDLWSVGCIMGEMVCHKILFPGRDYIDQWNKVIEQLGTPCPEFMKKLQPTVRTYVENRPKYAGYSFEKLFPDVLFPADSEHNKLKASQARDLLSKMLVIDASKRISVDEALQHPYINVWYDPSEAEAPPPKIPDKQLDEREHTIEEWKELIYKEVMDLEERTKNGVIRGQPSPLAQVQQ

Variants of: B1

In order of rising screen value:
1. chain 1 L10A, chain 1 L14A  -0.882 Z-score of the enrichment rate within one screen of 711 sequences
2. chain 1 T9A, chain 1 L12A  -0.742 Z-score of the enrichment rate within one screen of 711 sequences
3. chain 1 L12A  -0.706 Z-score of the enrichment rate within one screen of 711 sequences
4. chain 1 L10G  -0.672 Z-score of the enrichment rate within one screen of 711 sequences
5. chain 1 L10N  -0.671 Z-score of the enrichment rate within one screen of 711 sequences
6. chain 1 P8A, chain 1 L10A  -0.67 Z-score of the enrichment rate within one screen of 711 sequences
7. chain 1 L10S  -0.668 Z-score of the enrichment rate within one screen of 711 sequences
8. chain 1 L12E  -0.637 Z-score of the enrichment rate within one screen of 711 sequences
9. chain 1 L12P  -0.637 Z-score of the enrichment rate within one screen of 711 sequences
10. chain 1 L10T  -0.588 Z-score of the enrichment rate within one screen of 711 sequences
11. chain 1 L10P  -0.494 Z-score of the enrichment rate within one screen of 711 sequences
12. chain 1 R7G  -0.481 Z-score of the enrichment rate within one screen of 711 sequences
13. chain 1 L12C  -0.457 Z-score of the enrichment rate within one screen of 711 sequences
14. chain 1 L10A  -0.392 Z-score of the enrichment rate within one screen of 711 sequences
15. chain 1 L12A, chain 1 P13A  -0.381 Z-score of the enrichment rate within one screen of 711 sequences
16. chain 1 R7E  -0.371 Z-score of the enrichment rate within one screen of 711 sequences
17. chain 1 L10R  -0.363 Z-score of the enrichment rate within one screen of 711 sequences
18. chain 1 R7A, chain 1 L14A  -0.345 Z-score of the enrichment rate within one screen of 711 sequences
19. chain 1 L10V  -0.341 Z-score of the enrichment rate within one screen of 711 sequences
20. chain 1 L12N  -0.321 Z-score of the enrichment rate within one screen of 711 sequences
21. chain 1 R7A, chain 1 P8A  -0.277 Z-score of the enrichment rate within one screen of 711 sequences
22. chain 1 R5D  -0.21 Z-score of the enrichment rate within one screen of 711 sequences
23. chain 1 L12V  -0.205 Z-score of the enrichment rate within one screen of 711 sequences
24. chain 1 R5A, chain 1 R7A  -0.162 Z-score of the enrichment rate within one screen of 711 sequences
25. chain 1 R7Q  -0.0451 Z-score of the enrichment rate within one screen of 711 sequences
26. chain 1 R7N  -0.0352 Z-score of the enrichment rate within one screen of 711 sequences
27. chain 1 R7A  0.016 Z-score of the enrichment rate within one screen of 711 sequences
28. chain 1 R5E  0.07 Z-score of the enrichment rate within one screen of 711 sequences
29. chain 1 Q4A, chain 1 R7A  0.0948 Z-score of the enrichment rate within one screen of 711 sequences
30. chain 1 R7F  0.186 Z-score of the enrichment rate within one screen of 711 sequences
31. chain 1 R7V  0.194 Z-score of the enrichment rate within one screen of 711 sequences
32. chain 1 R7I  0.221 Z-score of the enrichment rate within one screen of 711 sequences
33. chain 1 R5A, chain 1 T9A  0.257 Z-score of the enrichment rate within one screen of 711 sequences
34. chain 1 R5A  0.263 Z-score of the enrichment rate within one screen of 711 sequences
35. chain 1 R5A, chain 1 P8A  0.293 Z-score of the enrichment rate within one screen of 711 sequences
36. chain 1 R7M  0.323 Z-score of the enrichment rate within one screen of 711 sequences
37. chain 1 R7A, chain 1 N16A  0.334 Z-score of the enrichment rate within one screen of 711 sequences
38. chain 1 R5A, chain 1 P6A  0.351 Z-score of the enrichment rate within one screen of 711 sequences
39. chain 1 Q4A, chain 1 R5A  0.359 Z-score of the enrichment rate within one screen of 711 sequences
40. chain 1 R7L  0.372 Z-score of the enrichment rate within one screen of 711 sequences
41. chain 1 L14D  0.409 Z-score of the enrichment rate within one screen of 711 sequences
42. chain 1 R7P  0.478 Z-score of the enrichment rate within one screen of 711 sequences
43. chain 1 L14A  0.48 Z-score of the enrichment rate within one screen of 711 sequences
44. chain 1 P3A, chain 1 R5A  0.535 Z-score of the enrichment rate within one screen of 711 sequences
45. chain 1 R5V  0.568 Z-score of the enrichment rate within one screen of 711 sequences
46. chain 1 R5P  0.594 Z-score of the enrichment rate within one screen of 711 sequences
47. chain 1 Q4A, chain 1 P8A  0.697 Z-score of the enrichment rate within one screen of 711 sequences
48. chain 1 R5I  0.772 Z-score of the enrichment rate within one screen of 711 sequences
49. chain 1 R7K  0.788 Z-score of the enrichment rate within one screen of 711 sequences
50. chain 1 L14R  0.833 Z-score of the enrichment rate within one screen of 711 sequences
51. chain 1 R5W  0.845 Z-score of the enrichment rate within one screen of 711 sequences
52. chain 1 L14K  0.866 Z-score of the enrichment rate within one screen of 711 sequences
53. chain 1 P3A, chain 1 P6A  0.9 Z-score of the enrichment rate within one screen of 711 sequences
54. chain 1 L14T  0.9 Z-score of the enrichment rate within one screen of 711 sequences
55. chain 1 L12I  0.938 Z-score of the enrichment rate within one screen of 711 sequences
56. chain 1 P13A, chain 1 N16A  1.11 Z-score of the enrichment rate within one screen of 711 sequences
57. chain 1 Q4A, chain 1 P13A  1.2 Z-score of the enrichment rate within one screen of 711 sequences
58. chain 1 P13V  1.22 Z-score of the enrichment rate within one screen of 711 sequences
59. chain 1 P13S  1.22 Z-score of the enrichment rate within one screen of 711 sequences
60. chain 1 P13C  1.25 Z-score of the enrichment rate within one screen of 711 sequences
61. chain 1 Q4P  1.26 Z-score of the enrichment rate within one screen of 711 sequences
62. chain 1 L14F  1.33 Z-score of the enrichment rate within one screen of 711 sequences
63. chain 1 Q4I  1.36 Z-score of the enrichment rate within one screen of 711 sequences
64. chain 1 P13L  1.38 Z-score of the enrichment rate within one screen of 711 sequences
65. chain 1 Q4F  1.4 Z-score of the enrichment rate within one screen of 711 sequences
66. chain 1 P13H  1.44 Z-score of the enrichment rate within one screen of 711 sequences
67. chain 1 P3N  1.46 Z-score of the enrichment rate within one screen of 711 sequences
68. chain 1 P3F  1.46 Z-score of the enrichment rate within one screen of 711 sequences
69. chain 1 Q4L  1.47 Z-score of the enrichment rate within one screen of 711 sequences
70. chain 1 P13Q  1.52 Z-score of the enrichment rate within one screen of 711 sequences
71. chain 1 P3V  1.59 Z-score of the enrichment rate within one screen of 711 sequences
72. chain 1 Q4Y  1.67 Z-score of the enrichment rate within one screen of 711 sequences
73. chain 1 P13N  1.87 Z-score of the enrichment rate within one screen of 711 sequences
74. chain 1 L14I  1.9 Z-score of the enrichment rate within one screen of 711 sequences
75. chain 1 P13D  1.95 Z-score of the enrichment rate within one screen of 711 sequences
